Four molecules from patent US20110039788, “COMPOSITIONS, METHODS AND KITS FOR DETECTING AND TREATING CANCER” (University of Miami, published 2011) can be followed below.

For series [1], the target named is T1, TCF4 (TCF7L2) DNA-binding domain (UniProt Q9NQB0 Q9NQB0:265-496). The series can be described thus: EMSA; high affinity; anti-His supershift assay. Conditions: tags: His (pET28A), expressed in E. coli; label: 32P 5' end. How it is done:
(§1) Double-stranded DNA oligonucleotides (30 mers) containing the genomic TBE sites T1-T4 with flanking sequences were 5′ end-labeled with ³²P and 5000 cpm/μl of labeled probe was incubated with 1 μg of recombinant His-TCF4 protein in a total volume of 15 μl binding buffer. For competition and supershift experiments, His-TCF4 was pre-incubated with unlabelled DNA oligonucleotides at 400-fold excess or with 1-5 μg of anti-6× His tag antibody (Abcam) for 10 minutes prior to addition of labeled probe. Samples were separated on 5% non-denaturing polyacrylamide gels for 1 h at 400V. Protein-DNA complexes were detected by phosphoimaging on a Storm 840 Scanner (Molecular Dynamics).

Series [2] has as its target T1, TCF4 (TCF7L2) DNA-binding domain. The experiment in a line: EMSA; high affinity; 1 ug protein in 15 ul. Conditions: tags: His (pET28A), expressed in E. coli; label: 32P 5' end. As to the method: as §1
To elucidate the molecular pathways acting upstream of Lbh, murine Lbh genomic sequences were screened for potential transcription factor binding sites. This in silico search identified four conserved putative TCF/LEF-binding elements (TBEs) in the Lbh gene locus. Two TBEs with the consensus motif 5′-CTTTG(A/T)(A/T)-3′ were located within an enhancer region (E1)-6245 (T1) and −6195 (T2) base pairs (bp) upstream of the Lbh transcriptional start site (FIG. 1A). In addition, two consensus TBEs were found in an enhancer (E2) contained within the first intron of the Lbh gene at positions +1558 (T3) and +2145 (T4) by (FIG. 1A). To directly assay for TCF binding to these sites, electrophoretic mobility shift analysis (EMSA) was performed. Recombinant TCF4 protein bound with high affinity to all Lbh-specific TBEs (T1-T4), but not to an unspecific oligonucleotide (FIG. 1B). TCF4 binding to these sites was efficiently competed by addition of 400-fold excess of unlabeled wild-type (+) oligonucleotide as well as increasing amounts of an antibody against recombinant TCF4 protein, but not by addition of 400-fold excess of mutant (m) oligonucleotide (FIGS. 1B, C). Subsequently, cell-based reporter assays were performed to test whether the Lbh genespecific TBE sites (T1-T4) were functionally responsive to overexpression of β-catenin, which is the Wnt-inducible component of the TCF/β-catenin transcriptional complex. […]

T1 sequence (Q9NQB0 265-496, one chain of several): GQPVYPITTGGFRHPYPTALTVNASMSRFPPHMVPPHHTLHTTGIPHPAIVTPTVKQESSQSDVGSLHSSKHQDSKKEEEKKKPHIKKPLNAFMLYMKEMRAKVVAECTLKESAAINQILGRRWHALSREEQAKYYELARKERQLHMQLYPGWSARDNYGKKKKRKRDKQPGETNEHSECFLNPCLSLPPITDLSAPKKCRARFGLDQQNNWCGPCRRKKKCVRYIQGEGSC

B1: Lbh TBE T3 (dsDNA)
DNA 1: GCTTTGAAGA
DNA 2: TCTTCAAAGC
B1: in series [1], the binding result was “binds”.

B2: Lbh TBE T1 (dsDNA)
DNA 1: CCTTTGAATC
DNA 2: GATTCAAAGG
Turning to B2, the binding result in series [2] is “binds”.

B3: Lbh TBE T4 (dsDNA)
DNA 1: ACTTTGTACT
DNA 2: AGTACAAAGT
As for B3, the binding result in series [2] is “binds”.

B4: Lbh TBE T2 (dsDNA)
DNA 1: TCTTTGATAT
DNA 2: ATATCAAAGA
As for B4, in series [2], the binding result is “binds”.
